Data set [1] deals with T1, EhMGL1 (Entamoeba histolytica, UniProt Q86D28).
T1 construct: gene metg; homotetramer
T1 sequence (Q86D28 1-389): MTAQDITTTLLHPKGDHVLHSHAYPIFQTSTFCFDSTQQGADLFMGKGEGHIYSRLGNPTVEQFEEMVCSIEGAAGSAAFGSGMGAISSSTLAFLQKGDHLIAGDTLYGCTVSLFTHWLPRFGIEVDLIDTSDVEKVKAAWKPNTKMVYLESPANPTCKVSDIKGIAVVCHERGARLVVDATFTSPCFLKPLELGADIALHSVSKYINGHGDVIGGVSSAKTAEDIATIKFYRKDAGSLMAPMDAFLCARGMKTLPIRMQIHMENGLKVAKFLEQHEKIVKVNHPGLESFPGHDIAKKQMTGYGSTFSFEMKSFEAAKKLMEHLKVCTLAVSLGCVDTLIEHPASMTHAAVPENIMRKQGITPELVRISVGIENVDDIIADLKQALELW
Description: X-ray crystallography of methionine-soaked crystals. In kind it is binding. As to conditions: covalent Schiff base with PLP in intermediates; Michaelis complex also seen; 50 mM L-methionine soak 30–120 s, 293 K.

For data set [2], the target named is L-methionine γ-lyase from Entamoeba histolytica (EhMGL1) (Entamoeba histolytica). As to the kind of experiment: crystal structure; hanging-drop vapor diffusion at 277 K, 1.8 M ammonium sulfate, 0.1 M cacodylate pH 6.6, 0.1 M lithium citrate, 100 μM PLP; substrate-free and methionine-soaked crystals (50 mM L-methionine, 30-120 s, 293 K); tetramer of two catalytic dimers in the crystal.

Data set [3] addresses T1, EhMGL1. Description: X-ray crystallography, […] Å. It is filed as binding. The note with it: covalent, Schiff base with Lys205; substrate-free enzyme.
Substrate in data set [4]: COCC[C@H](N)C(=O)O
Description: purified protein. As to conditions: 100 mM phosphate pH 7.0, 1 mM DTT, 20 μM PLP, 37 °C.

Substrate in data set [5]: C[Se]CC[C@H](N)C(=O)O
As to the kind of experiment: purified protein. As to conditions: 100 mM phosphate pH 7.0, 1 mM DTT, 20 μM PLP, 37 °C.

Consider 4 molecules from PMC5501846, “X-Ray snapshots of a pyridoxal enzyme: a catalytic mechanism involving concerted [1,5]-hydrogen sigmatropy in methionine γ-lyase” (Scientific Reports, 2017).

As to `CSCC[C@H](N)C(=O)O` [CH3S, L-methionine], in data set [1], the “X-ray crystallography of methionine-soaked crystals” value is given as “Crystals of EhMGL1 complexed with reaction intermediates were prepared by soaking crystals”. Molecule “L-methionine γ-lyase from Entamoeba histolytica (EhMGL1) (enzyme)” yielded a stoichiometry N in data set [2] of 4. Regarding `Cc1ncc(COP(=O)(O)O)c(C=O)c1O` [pyridoxal 5′-phosphate], the “X-ray crystallography, 1.97 Å” value in data set [3] is “the active site binds a PLP cofactor that forms a Schiff base”.

B1: EhMGL1 (Entamoeba histolytica) (protein)
chain: MTAQDITTTLLHPKGDHVLHSHAYPIFQTSTFCFDSTQQGADLFMGKGEGHIYSRLGNPTVEQFEEMVCSIEGAAGSAAFGSGMGAISSSTLAFLQKGDHLIAGDTLYGCTVSLFTHWLPRFGIEVDLIDTSDVEKVKAAWKPNTKMVYLESPANPTCKVSDIKGIAVVCHERGARLVVDATFTSPCFLKPLELGADIALHSVSKYINGHGDVIGGVSSAKTAEDIATIKFYRKDAGSLMAPMDAFLCARGMKTLPIRMQIHMENGLKVAKFLEQHEKIVKVNHPGLESFPGHDIAKKQMTGYGSTFSFEMKSFEAAKKLMEHLKVCTLAVSLGCVDTLIEHPASMTHAAVPENIMRKQGITPELVRISVGIENVDDIIADLKQALELW
In the case of B1, in data set [4], the Km stood at 2500 ± 240 µM, the kcat was 1.04 ± 0.35 s⁻¹ and the kcat/Km came to 420 ± 150 M⁻¹ s⁻¹. Further, the Km in data set [5] came to 410 ± 70 µM.
